Laboratory results reported in patent US20220062371.

What was measured:
[1] = test system: Compound 9, Arg-PEG4-Phe-Arg-Dap(CO-CPT)-Phe-OH
[2] = test system: Compound 8, Arg-PEG4-Phe-Arg-Glu(Sar-OCPT)-Phe-OH
[3] = test system: Compound 15, Arg-PEG4-Phe-Arg-Glu(Sar-OCPT)-Arg-OH
[4] = test system: Compound 10, Arg-PEG4-Phe-Arg-Dab(CO-CPT)-Phe-OH
[5] = test system: Compound 5, DM1-Mal-Phe-Lys-Lys(PEG4-Mal-Cys-Ac)-Phe-OH
[6] = test system: Compound 27, Ac-Cys-Ma-PEG5-Phe-Cit-Lys(Mcc-DM1)-Tyr-OH
[7] = test system: Compound 16, Arg-PEG4-Phe-Arg-Glu(Sar-OCPT)-Arg-Phe-Arg-OH
[8] = test system: Compound 17, Arg-PEG4-Phe-Arg-[Glu(Sar-OCPT)-Phe]2-OH
[9] = test system: Compound 18, Arg-PEG4-[Phe-Arg-Glu(Sar-OCPT)-Arg]2-OH
[10] = test system: Compound 6, DM1-Mal-Phe-Cit-Lys(PEG4-Mal-Cys-Ac)-Phe-OH
[11] = test system: Compound 11, Arg-PEG4-Phe-Arg-Ser(CO-CPT)-Phe-OH
[12] = test system: Compound 1, AF-Arg-Lys(PEG4-Mal-Cys-Ac)-Phe-OH
[13] = test system: Compound 13, Ac-Cys-Mal-PEG4-Phe-Lys-Lys(AF)-Phe-OH
[14] = test system: Compound 32, Ac-Cys-Mal-[PEG5-Lys(AF-Cit-Lys(Y)-Phe-OH)]2-Gly-NH2
[15] = test system: Compound 19, AF-Cit-Lys(PEG4-Mal-Cys-Ac)-Phe-OH
[16] = test system: Compound 22, DM1-Mcc-Phe-Cit-Lys(PEG5-Ma-Cys-Ac)-Tyr-OH
[17] = test system: Compound 31, AF-Cit-Lys(Mal-DM1)-Phe-Lys(PEG4-Mal-Cys-Ac)-Phe-OH
[18] = test system: Compound 29, Ac-Cys-Mal-PEG4-[Phe-Lys-Lys(Mal-DM1)-Phe]2-OH
[19] = test system: Compound 12, Ac-Cys-Mal-PEG4-Phe-Lys-Lys(Mal-DM1)-Phe-OH
[20] = test system: Compound 30, Ac-Cys-Mal-PEG4-Phe-Arg-Lys(Mal-DM1)-Arg-Lys(AF)-Phe-OH
[21] = test system: Compound 23, DM1-Mcc-Cit-Lys(PEG5-Ma-Cys-Ac)-Tyr-OH
[22] = test system: Compound 3, AF-Arg-Phe-Lys(PEG4-Mal-Cys-Ac)-OH
[23] = test system: Compound 28, Ac-Cys-Mal-PEG4-Phe-Lys-Lys(Mal-DM1)-Phe-Phe-Lys-OH
[24] = test system: Compound 7, DM1-Mal-Phe-Cit-Phe-Lys(PEG4-Mal-Cys-Ac)-OH

Substance: Recombinant human Cathepsin B
- T1/2 Compound (min), Cat B-induced cleavage [1]: 4.5 min
- Cat B-induced cleavage (in vitro enzymatic cleavage assay) [2]: compound 8 was rapidly cleaved to release the C-terminal dipeptide-drug unit H-Glu(Sar-OCPT)-Phe-OH
- T1/2 Compound (min), Cat B-induced cleavage [2]: 2.2 min
- Cat B-induced cleavage (in vitro enzymatic cleavage assay) [3]: Cat B-induced cleavage of compound 15 releases a second C-terminal dipeptide-drug unit H-Glu(Sar-OCPT)-Arg-OH
- T1/2 Compound (min), Cat B-induced cleavage [4]: 0.9 min
- T1/2 Compound (min), Cat B-induced cleavage [5]: 0.6 min
- T1/2 Compound (min), Cat B-induced cleavage [6]: 0.06 min
- Cat B-induced cleavage (in vitro enzymatic cleavage assay) [7]: compound 16 as a first intermediate, which is in turn rapidly cleaved via exo-Cat B mechanism to release compound 15 as a second intermediate
- Cat B-induced cleavage (in vitro enzymatic cleavage assay) [8]: Cat B-induced cleavage of compound 17 rapidly released C-terminal dipeptide-drug unit Glu(Sar-OCPT)-Phe-OH and compound 8 as an intermediate
- Cat B-induced cleavage (in vitro enzymatic cleavage assay) [9]: Cat B-induced cleavage of compound 18 rapidly released the C-terminal dipeptide-drug unit H-Glu(Sar-OCPT)-Arg-OH and compound 16 as a first intermediate
- T1/2 Compound (min), Cat B-induced cleavage [10]: 0.3 min
- T1/2 Compound (min), Cat B-induced cleavage [11]: 2.2 min
- T1/2 Compound (min), Cat B-induced cleavage [12]: 1.5 min
- T1/2 Compound (min), Cat B-induced cleavage [13]: 1.6 min
- T1/2 Compound (min), Cat B-induced cleavage [14]: 0.98 min
- T1/2 Compound (min), Cat B-induced cleavage [15]: 1.1 min
- T1/2 Compound (min), Cat B-induced cleavage [16]: 0.06 min
- T1/2 Compound (min), Cat B-induced cleavage [17]: 1.08 min
- T1/2 Compound (min), Cat B-induced cleavage [18]: 2.4 min
- T1/2 Compound (min), Cat B-induced cleavage [19]: 1.5 min
- T1/2 Compound (min), Cat B-induced cleavage [20]: 1.1 min
- T1/2 Compound (min), Cat B-induced cleavage [21]: 0.0004 min
- T1/2 Compound (min), Cat B-induced cleavage [22]: 1.4 min
- T1/2 Compound (min), Cat B-induced cleavage [23]: 0.3 min
- T1/2 Compound (min), Cat B-induced cleavage [24]: 1.2 min
